Assay results: patent US20220227815A1, “COMPOSITIONS AND METHODS USEFUL IN TREATING BRAIN DISEASES” (University of Kansas, priority 2019, published 2022)

Columns and labels:
APP/PS1 mice = assay: Novel object recognition (NOR) assessment; format: in vivo, transgenic APP/PS1 mice; conditions: all groups compared
Protocol: (§1) Animals: All animal studies were carried out under the approved animal protocol (AUS-74-11) granted by Institutional Animal Care and Use Committee (IACUC) at The University of Kansas. Animal Care Unit (ACU) personnel and veterinarians were involved in the care of the animals used in this study. Female transgenic APP/PS1 (MMRRC stock #34832-Jax) were obtained from Jackson Laboratory (Bar Harbor, Me.) and housed until at least 6 months of age. Mice received intravenous (i.v.) injections of either BDNF (5.7 nmol/kg)+ADTC5 (10 μmol/kg; n=7), BDNF alone (5.7 nmol/kg; n=6), or vehicle (n=6) every 4 days, for a total of 8 injections. At the end of the study, the mice were euthanized via CO2 inhalation and perfused with PBS immediately followed by 4% formalin fixative solution. The brains were extracted and post-fixed overnight in the perfusion-fixation solution then transferred to 70% ethanol PBS solution for paraffin embedding.
Novel object recognition assessment: Twenty-four hours following the Y-maze assessment, the mice were subjected to Novel Object Recognition (NOR) assessment. […] The mice were allowed to explore the objects for 10 min and the total amount of time each mouse spent interacting with each object was measured. […]

amyloid beta plaques = assay: Amyloid beta plaque load in hippocampus, Congo red staining; format: in vivo, transgenic APP/PS1 mice; conditions: APP/PS1 mice; 8 injections; all three groups compared; n=5
Protocol: as §1
Coronal brain sections (10 μm thickness) were generated and mounted onto gelatin-coated slides (Superfrost Plus, Thermo Fisher Scientific, Waltham, Mass.). For both Aβ histology and NG2 receptor immunohistochemistry, sections were deparaffinized using xylene and serially hydrated from 95% ethanol to distilled water. […] Aβ plaque levels were quantified by counting the number of plaques from the hippocampus at 10× magnification from 5 random sections per group (n=5).

[1] = system: EGR1, ARC, and NOS1 mRNA transcripts; assay: Fluorescent in situ hybridization of mRNA transcripts in EAE mouse cortex; format: in vivo, SJL/elite mice; conditions: across the three groups, n=5
Protocol: Coronal brain sections (5 μm thickness) from mid- and hind-brain were sectioned and washed three times in PBS before mounting on gelatin-coated glass slides (Superfrost Plus, Thermo Fisher Scientific). Tissue was allowed to dry at RT and then stored at −20° C. until use. Fluorescent in situ hybridization (FISH) was performed using RNAscope® Technology 2.0, Advanced Cell Diagnostics (ACD), Hayward, Calif.) Multiplex Reagent Kit V2. See Vasquez, J. J.; Hussien, R.; Aguilar-Rodriguez, B.; Junger, H.; Dobi, D.; Henrich, T. J.; Thanh, C.; Gibson, E.; Hogan, L. E.; McCune, J.; Hunt, P. W.; Stoddart, C. A.; Laszik, Z. G. Elucidating the Burden of HIV in Tissues Using Multiplexed Immunofluorescence and In Situ Hybridization: Methods for the Single-Cell Phenotypic Characterization of Cells Harboring HIV In Situ. J Histochem Cytochem 2018, 66, (6), 427-446; Gershon, T. R.; Crowther, A. J.; Liu, H.; Miller, C. R.; Deshmukh, M. Cerebellar granule neuron progenitors are the source of Hk2 in the postnatal cerebellum. Cancer Metab 2013, 1, (1), 15; and Smith, P. A.; Schmid, C.; Zurbruegg, S.; Jivkov, M.; Doelemeyer, A.; Theil, D.; Dubost, V.; Beckmann, N. Fingolimod inhibits brain atrophy and promotes brain-derived neurotrophic factor in an animal model of multiple sclerosis. J Neuroimmunol 2018, 318, 103-113. […]

B1: BDNF: recombinant brain-derived neurotrophic factor (13 kDa monomer), Peprotech (protein, UniProt P23560 19-247, looked up)
Neurotrophic factor BDNF …: APMKEANIRGQGGLAYPGVRTHGTLESVNGPKAGSRGLTSLADTFEHVIEELLDEDQKVRPNEENNKDADLYTSRVMLSSQVPLEPPLLFLLEEYKNYLDAANMSMRVRRHSDPARRGELSVCDSISEWVTAADKKTAVDMSGGTVTVLEKVPVSKGQLKQYFYETKCNPMGYTKEGCRGIDKRHWNSQCRTTQSYVRALTMDSKKRIGWRFIRIDTSCVCTLTIKRGR
no significant difference: total time spent with either of the two objects (APP/PS1 mice) | amounts of amyloid beta plaques in hippocampus (amyloid beta plaques) | NOS mRNA expression [1]
